Test results as given in US20190091326A1.

What was measured:
[1] = target: A244-rgp120 grown in kifunensine treated cells (HIV-1 isolate A244); test: ELISA, mAb titrated on gp120, absorbance 492 nm; curve 496 (A244 gp120 kif)
[2] = target: A244-rgp120 grown in GnTI- cells (HIV-1 isolate A244); test: ELISA, mAb titrated on gp120, absorbance 492 nm; curve 495 (A244 gp120 GNTI-)
[3] = target: 1209 V1/V2/V3/C3 scaffold grown in kifunensine; test: ELISA, mAb titrated on scaffold, absorbance 492 nm; curve 509 (1209 kif)

“PGT128 broadly neutralizing monoclonal antibody” showed an EC50 [1] of under 0.01 µg/mL, an EC50 [2] of under 0.01 µg/mL and an EC50 [3] of 0.09 µg/mL.
